Earlier results as cited in paper PMC10373500.

Molecular target: Asp76 (UniProt position 102, GSPGADRVVFN)

For “Ribonuclease T1 (RNase T1) (not stated in the article (Aspergillus oryzae from outside knowledge))”, the pKa is listed as 0.5.
